Test results: patent US20100015130A1 (MIT, published 2010)

Biological target: GSK3β as used in the surface plasmon resonance (SPR) binding assays (Homo sapiens (Human), UniProt P49841 1-420)
Assay: SPR, stoichiometry inferred from the response
Description: Surface plasmon resonance (SPR) was used to determine whether peptide 2 directly binds to GSK3β. GSK3β SPR binding assays were carried out with peptide 1, peptide 2, the GSK3β inhibitor L803-MTS, and as a negative control, a peptide from the N-type calcium channel, CACNA1B (FIG. 6A). […] To identify the peptide 2 sequences that mediate this interaction with GSK3β, we designed overlapping 15-mer peptides that covered peptide 2 and tested their binding to GSK3β SPR (FIG. 16B).

Chain of GSK3β as used in the surface plasmon resonance (SPR) binding assays (P49841 whole entry, form in doubt): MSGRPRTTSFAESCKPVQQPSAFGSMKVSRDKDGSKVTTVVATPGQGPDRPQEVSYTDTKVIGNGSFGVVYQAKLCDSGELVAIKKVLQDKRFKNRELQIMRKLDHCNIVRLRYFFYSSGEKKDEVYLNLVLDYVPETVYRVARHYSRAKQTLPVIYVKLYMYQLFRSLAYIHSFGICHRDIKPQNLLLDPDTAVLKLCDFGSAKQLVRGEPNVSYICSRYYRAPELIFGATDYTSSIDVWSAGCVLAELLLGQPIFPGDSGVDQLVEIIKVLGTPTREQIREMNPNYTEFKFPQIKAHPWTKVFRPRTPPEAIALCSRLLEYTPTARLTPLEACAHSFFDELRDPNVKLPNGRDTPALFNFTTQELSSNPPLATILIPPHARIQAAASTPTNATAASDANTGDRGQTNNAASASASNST

B1: Mouse DISC1 peptide 2 (195-238aa) (peptide)
peptide: PADIASLPGFQDTFTSSFSFIQLSLGAAGERGEAEGCLPSREAE
notes: Synthetic peptide (Chi Scientific)
B1 was tested, and the peptide-protein ratio was 2 peptide:protein.

B2: Murine DISC1 peptide 3 (15-mer, mDISC1 amino acids 211 to 225) (peptide)
peptide: SFSFIQLSLGAAGER
notes: One of the overlapping 15-mer peptides that cover peptide 2; also called number 43; DISCtide2
B2 was tested, and the peptide-protein ratio was 2 peptide:protein.
